{"source": "paper PMC6825541", "molecular_target": "recombinant Ebola virus (EBOV) glycoprotein (Zaire ebolavirus (EBOV)) (UniProt Q05320)", "experiment": "SEC"}
{"substance": "recombinant Ebola virus (EBOV) glycoprotein (from UniProt Q05320) (natural protein)", "values": [{"measurement": "stoichiometry N", "result": 3}]}
